B1: antibody 9-8 (antibody, V domains shown)
VH: EVQLVESGGGLVQPGGSLRLSCAASGFTFSTYWMSWVRQAPGKGLEWVANIKQDGSEKYYVDSVKGRFTISRDNAKNSLYLQMNSLRAEDTAVYYCARYSLDYYDTSGSFDYWGQGTLVAVSS
VL: SYELTQPPSVSVSPGQTARITCSGDALPKKYAYWYQQKSGQAPVLVIYEDSKRPSGIPERFSGSSSGTMATLTISGAQVEDEADYYCYSTDSSGNHRGVFGGGTQLTVL
B2: antibody 9-9 (antibody, V domains shown)
VH: EVQLVESGGGLVQPGGSLRLSCAASGFIFSNYWMSWVRQAPGKGLEWVANTKQDDSEKYYVDAVKGRFTISRDNAKNSLYLQMNSLRADDTAVYYCAREVRIAVTGTSRDEDYSYNGMDVWGQGTTVTVSS
VL: SYELTQPPSVSVSPGQTARITCSADALAKQYAYWYQQKPGQAPVLVIFKDSERPSGIPERFSGSSSGTTVTLTISRVQAEDEADYYCQSADSSGYYWAFGGGTKLTVL
B3: antibody 9-29 (antibody, V domains shown)
VH: EVQLVQSGAEVKKSGESLKISCKGSGYSFTNYWIGWVRQMPGKGLEWMGIIYPGDSDTRHSPSFQGQVTISADKSLRTAYLQWSSLKASDTAIYYCARGADGYSSYFDYWGQGTLVTVSS
VL: NFMLTQPHSVSESPGKTVIISCTRSSGSIASDYVQWYQQRPGSVPTTVIYEDNERPSGVPDRFSGSIDSSSNSASLTISGLKTEDEADYYCQSYDSSVQVFGGGTKLTVL

Tests used:
[1] = biological target: T1, SARS-CoV-2 nucleocapsid phosphoprotein (SARS-CoV-2, UniProt P0DTC9 1-419); assay: ELISA (FIG. 3)
[2] = biological target: T1, SARS-CoV-2 nucleocapsid phosphoprotein; assay: Western blot on NP denatured with DTT and heat (FIG. 4)

Binder | binding result [1] | binding result [2]
B1 | binds | –
B2 | – | binds
B3 | – | binds
